Experimental findings from patent US20170015742A1 (published 2017) are described below.

For one assay, the target named is T1, VEGF-A (human, UniProt P15692 207-395).
T1 construct: also called hVEGF165
Description: Biacore SPR; DVD-Ig captured on anti-human Fc, antigen injected. Here is the method: (§1) For example, approximately 9000 RU of goat anti-human Fc specific polyclonal antibody (Thermo Fisher Scientific Inc., Rockford, Ill.) diluted in 10 mM sodium acetate (pH 4.5) is directly immobilized across a CM5 research grade biosensor chip using a standard amine coupling kit according to manufacturer's instructions and procedures at 25 μg/ml. Unreacted moieties on the biosensor surface were blocked with ethanolamine. For kinetic analysis, rate equations derived from the 1:1 Langmuir binding model were fitted simultaneously to multiple antigen injections (using global fit analysis) with the use of Scrubber 2 (BioLogic Software), Biacore Biaevaluation 4.0.1 software or Biacore T100 Evaluation software. Purified antibodies or DVD-Ig molecules were diluted in running buffer for capture across goat anti-human Fc reaction surfaces. Antibodies or DVD-Ig molecules to be captured as a ligand (1 μg/ml) were injected over reaction matrices at a flow rate of 10 μl/minute. During the assay, all measurements were referenced against the capture surface alone (i.e., with no captured antibody or DVD-Ig molecule). […] The equilibrium dissociation constant KD (M) of the reaction between antibodies and the target antigen was then calculated from the kinetic rate constants by the following formula: KD=Koff/Kₒₙ. Binding was recorded as a function of time and kinetic rate constants were calculated.
On the technique in general: In SPR one partner is held on a chip, and binding of the other changes the refractive index at the surface.

For another assay, the target named is T2, PDGF-BB (human, UniProt P01127 82-190, limits assumed).
T2 construct: also called human PDGF-BB; hPDGF-BB
T2 sequence (P01127 82-190 limits assumed): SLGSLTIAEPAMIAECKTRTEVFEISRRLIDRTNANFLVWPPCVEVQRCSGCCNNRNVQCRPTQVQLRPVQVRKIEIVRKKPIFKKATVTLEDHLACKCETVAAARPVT
Described as above. The protocol: as §1

T1 sequence (P15692 other isoform, or with tags, fused parts or gaps limits assumed): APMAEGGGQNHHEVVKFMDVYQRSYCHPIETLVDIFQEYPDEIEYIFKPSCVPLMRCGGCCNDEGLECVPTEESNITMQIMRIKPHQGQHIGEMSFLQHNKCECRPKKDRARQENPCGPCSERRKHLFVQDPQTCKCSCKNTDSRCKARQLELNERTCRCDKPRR

B1: 4G8.3-GS-9E8.4E (PR-1575832) (bispecific antibody, human IgG1, kappa, L234A L235A)
heavy: EVQLVQSGSELKKPGASVKVSCKASGYTFTNYGMYWVRQAPGQGLEWMGWINTETGKPTYADDFKGRFVFSLDTSVSTAYLQISSLKAEDTAVYYCARTNYYYRSYIFYFDYWGQGTMVTVSSGGGGSGGGGSEVTLRESGPALVKPTQTLTLTCTFSGFSLSTYGMGVGWIRQPPGKALEWLANIWWDDDKYYNPSLKNRLTISKDTSKNQVVLTMTNMDPVDTATYYCARIESIGTTYSFDYWGQGTMVTVSSASTKGPSVFPLAPSSKSTSGGTAALGCLVKDYFPEPVTVSWNSGALTSGVHTFPAVLQSSGLYSLSSVVTVPSSSLGTQTYICNVNHKPSNTKVDKKVEPKSCDKTHTCPPCPAPEAAGGPSVFLFPPKPKDTLMISRTPEVTCVVVDVSHEDPEVKFNWYVDGVEVHNAKTKPREEQYNSTYRVVSVLTVLHQDWLNGKEYKCKVSNKALPAPIEKTISKAKGQPREPQVYTLPPSREEMTKNQVSLTCLVKGFYPSDIAVEWESNGQPENNYKTTPPVLDSDGSFFLYSKLTVDKSRWQQGNVFSCSVMHEALHNAYTQKSLSLSPGK
light: DTVLTQSPATLSLSPGERATLSCRASESVSTHMHWYQQKPGQAPRLLIYGASNLESGVPARFSGSGSGTDFTLTISSLEPEDFAVYFCQQSWNDPFTFGQGTKLEIKRGGSGGGGSGEFVLTQSPGTLSLSPGERATLSCERSSGDIGESYVSWYQQKPGQAPRLVIYADDQRPSGIPDRFSGSGSGTDFTLTISRLEPEDFAVYYCQSYDINIDIVFGGGTKVEIKRTVAAPSVFIFPPSDEQLKSGTASVVCLLNNFYPREAKVQWKVDNALQSGNSQESVTEQDSKDSTYSLSSTLTLSKADYEKHKVYACEVTHQGLSSPVTKSFNRGEC
notes: DVD-Ig: outer hBDB-4G8.3 (VEGF), inner hBDI-9E8.4E (PDGF), linkers GS-H10/GS-L10; Human IgG1 L234A, L235A, H435A with kappa
Consider B1, for which the Kd (commonly the concentration at which binding is half-saturated) with VEGF-A worked out at 13 pM; in the assay with PDGF-BB it was 20 pM. For the same molecule, the results for the kon with VEGF-A and with PDGF-BB were 6.1e+06 M⁻¹ s⁻¹ and 1.3e+07 M⁻¹ s⁻¹, respectively.

B2: 4G8.3-SL-9E8.4E (PR-1575834) (bispecific antibody, human IgG1, kappa, L234A L235A)
heavy: EVQLVQSGSELKKPGASVKVSCKASGYTFTNYGMYWVRQAPGQGLEWMGWINTETGKPTYADDFKGRFVFSLDTSVSTAYLQISSLKAEDTAVYYCARTNYYYRSYIFYFDYWGQGTMVTVSSASTKGPEVTLRESGPALVKPTQTLTLTCTFSGFSLSTYGMGVGWIRQPPGKALEWLANIWWDDDKYYNPSLKNRLTISKDTSKNQVVLTMTNMDPVDTATYYCARIESIGTTYSFDYWGQGTMVTVSSASTKGPSVFPLAPSSKSTSGGTAALGCLVKDYFPEPVTVSWNSGALTSGVHTFPAVLQSSGLYSLSSVVTVPSSSLGTQTYICNVNHKPSNTKVDKKVEPKSCDKTHTCPPCPAPEAAGGPSVFLFPPKPKDTLMISRTPEVTCVVVDVSHEDPEVKFNWYVDGVEVHNAKTKPREEQYNSTYRVVSVLTVLHQDWLNGKEYKCKVSNKALPAPIEKTISKAKGQPREPQVYTLPPSREEMTKNQVSLTCLVKGFYPSDIAVEWESNGQPENNYKTTPPVLDSDGSFFLYSKLTVDKSRWQQGNVFSCSVMHEALHNAYTQKSLSLSPGK
light: DTVLTQSPATLSLSPGERATLSCRASESVSTHMHWYQQKPGQAPRLLIYGASNLESGVPARFSGSGSGTDFTLTISSLEPEDFAVYFCQQSWNDPFTFGQGTKLEIKRTVAAPSVFIFPPEFVLTQSPGTLSLSPGERATLSCERSSGDIGESYVSWYQQKPGQAPRLVIYADDQRPSGIPDRFSGSGSGTDFTLTISRLEPEDFAVYYCQSYDINIDIVFGGGTKVEIKRTVAAPSVFIFPPSDEQLKSGTASVVCLLNNFYPREAKVQWKVDNALQSGNSQESVTEQDSKDSTYSLSSTLTLSKADYEKHKVYACEVTHQGLSSPVTKSFNRGEC
notes: DVD-Ig: outer hBDB-4G8.3 (VEGF), inner hBDI-9E8.4E (PDGF), linkers HG-short/LK-long; Human IgG1 L234A, L235A, H435A with kappa
As for B2, the Kd was found to be 10 pM with VEGF-A and 15 pM in the assay with PDGF-BB. For the same molecule, the association rate constant (kon) (as a rule, the rate constant with which the complex forms) was determined as 6.2e+06 M⁻¹ s⁻¹ with VEGF-A and 1.7e+07 M⁻¹ s⁻¹ with PDGF-BB.

B3: 4G8.3-LS-9E8.4 (g) (PR-1572106) (bispecific antibody, human IgG1, kappa, L234A L235A)
heavy: EVQLVQSGSELKKPGASVKVSCKASGYTFTNYGMYWVRQAPGQGLEWMGWINTETGKPTYADDFKGRFVFSLDTSVSTAYLQISSLKAEDTAVYYCARTNYYYRSYIFYFDYWGQGTMVTVSSASTKGPSVFPLAPEVTLRESGPALVKPTQTLTLTCTFSGFSLSTYGMGVGWIRQPPGKALEWLANIWWDDDKYYNPSLKNRLTISKDTSKNQVVLTMTNMDPVDTATYYCARIESIGTTYSFDYWGQGTMVTVSSASTKGPSVFPLAPSSKSTSGGTAALGCLVKDYFPEPVTVSWNSGALTSGVHTFPAVLQSSGLYSLSSVVTVPSSSLGTQTYICNVNHKPSNTKVDKKVEPKSCDKTHTCPPCPAPEAAGGPSVFLFPPKPKDTLMISRTPEVTCVVVDVSHEDPEVKFNWYVDGVEVHNAKTKPREEQYNSTYRVVSVLTVLHQDWLNGKEYKCKVSNKALPAPIEKTISKAKGQPREPQVYTLPPSREEMTKNQVSLTCLVKGFYPSDIAVEWESNGQPENNYKTTPPVLDSDGSFFLYSKLTVDKSRWQQGNVFSCSVMHEALHNAYTQKSLSLSPGK
light: DTVLTQSPATLSLSPGERATLSCRASESVSTHMHWYQQKPGQAPRLLIYGASNLESGVPARFSGSGSGTDFTLTISSLEPEDFAVYFCQQSWNDPFTFGQGTKLEIKRTVAAPEFVLTQSPGTLSLSPGERATLSCERSSGDIGDSYVSWYQQKPGQAPRLVIYADDQRPSGIPDRFSGSGSGTDFTLTISRLEPEDFAVYYCQSYDINIDIVFGGGTKVEIKRTVAAPSVFIFPPSDEQLKSGTASVVCLLNNFYPREAKVQWKVDNALQSGNSQESVTEQDSKDSTYSLSSTLTLSKADYEKHKVYACEVTHQGLSSPVTKSFNRGEC
notes: DVD-Ig: outer hBDB-4G8.3 (VEGF), inner hBDI-9E8.4 (PDGF), linkers HG-long/LK-short; Human IgG1 L234A, L235A, H435A with kappa
Regarding B3, in the assay with VEGF-A, the affinity, expressed as Kd, was 8.1 pM and the on-rate constant (kon) stood at 6.3e+06 M⁻¹ s⁻¹. In the assay with PDGF-BB, the affinity, expressed as Kd, was 11 pM and the kon is 1.8e+07 M⁻¹ s⁻¹.

B4: 4G8.3-LS-9E8.4E (PR-1575835) (bispecific antibody, human IgG1, kappa, L234A L235A)
heavy: EVQLVQSGSELKKPGASVKVSCKASGYTFTNYGMYWVRQAPGQGLEWMGWINTETGKPTYADDFKGRFVFSLDTSVSTAYLQISSLKAEDTAVYYCARTNYYYRSYIFYFDYWGQGTMVTVSSASTKGPSVFPLAPEVTLRESGPALVKPTQTLTLTCTFSGFSLSTYGMGVGWIRQPPGKALEWLANIWWDDDKYYNPSLKNRLTISKDTSKNQVVLTMTNMDPVDTATYYCARIESIGTTYSFDYWGQGTMVTVSSASTKGPSVFPLAPSSKSTSGGTAALGCLVKDYFPEPVTVSWNSGALTSGVHTFPAVLQSSGLYSLSSVVTVPSSSLGTQTYICNVNHKPSNTKVDKKVEPKSCDKTHTCPPCPAPEAAGGPSVFLFPPKPKDTLMISRTPEVTCVVVDVSHEDPEVKFNWYVDGVEVHNAKTKPREEQYNSTYRVVSVLTVLHQDWLNGKEYKCKVSNKALPAPIEKTISKAKGQPREPQVYTLPPSREEMTKNQVSLTCLVKGFYPSDIAVEWESNGQPENNYKTTPPVLDSDGSFFLYSKLTVDKSRWQQGNVFSCSVMHEALHNAYTQKSLSLSPGK
light: DTVLTQSPATLSLSPGERATLSCRASESVSTHMHWYQQKPGQAPRLLIYGASNLESGVPARFSGSGSGTDFTLTISSLEPEDFAVYFCQQSWNDPFTFGQGTKLEIKRTVAAPEFVLTQSPGTLSLSPGERATLSCERSSGDIGESYVSWYQQKPGQAPRLVIYADDQRPSGIPDRFSGSGSGTDFTLTISRLEPEDFAVYYCQSYDINIDIVFGGGTKVEIKRTVAAPSVFIFPPSDEQLKSGTASVVCLLNNFYPREAKVQWKVDNALQSGNSQESVTEQDSKDSTYSLSSTLTLSKADYEKHKVYACEVTHQGLSSPVTKSFNRGEC
notes: DVD-Ig: outer hBDB-4G8.3 (VEGF), inner hBDI-9E8.4E (PDGF), linkers HG-long/LK-short; Human IgG1 L234A, L235A, H435A with kappa
With B4, the Kd is 10 pM with VEGF-A and 14 pM with PDGF-BB. For the same molecule, the kon came to 5.8e+06 M⁻¹ s⁻¹ with VEGF-A and 2e+07 M⁻¹ s⁻¹ with PDGF-BB.
